This is an account of results in patent US20250154277A1 (CONCEPT TO MEDICINE BIOTECH, published 2025).

Broadly, the Kd is a measure of binding affinity in units of concentration. A high value points to a looser complex. A word on the koff: it is a measure of how fast the partners let go of each other. Read a high koff as fast dissociation. In general, kon refers to the second-order rate constant of association. Read a low kon as slow association. A word on the EC50: it is the concentration giving half of the maximal effect.

Sequences and labels used below:
T1: human 5T4-His protein (human, UniProt Q13641 32-355)
T1 construct: also called recombinant 5T4 protein (human 5T4-his tag); human 5T4 protein; not shown: His tag
T1 sequence (looked up): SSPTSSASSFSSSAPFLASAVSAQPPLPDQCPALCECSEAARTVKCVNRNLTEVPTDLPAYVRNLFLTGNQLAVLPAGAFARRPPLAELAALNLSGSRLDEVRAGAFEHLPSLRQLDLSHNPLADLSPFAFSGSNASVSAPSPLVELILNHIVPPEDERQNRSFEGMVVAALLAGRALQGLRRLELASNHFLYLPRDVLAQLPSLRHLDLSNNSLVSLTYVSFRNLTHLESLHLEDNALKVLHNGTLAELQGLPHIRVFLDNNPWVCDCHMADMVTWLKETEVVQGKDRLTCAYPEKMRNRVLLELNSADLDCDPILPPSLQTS

T2: cynomolgus 5T4 protein (cynomolgus monkey, UniProt Q4R8Y9 35-355, limits assumed)
T2 construct: Coated protein in ELISA; the screening step names a cyno 5T4-His protein; also called cyno 5T4; recombinant cyno 5T4-His protein
T2 sequence (looked up): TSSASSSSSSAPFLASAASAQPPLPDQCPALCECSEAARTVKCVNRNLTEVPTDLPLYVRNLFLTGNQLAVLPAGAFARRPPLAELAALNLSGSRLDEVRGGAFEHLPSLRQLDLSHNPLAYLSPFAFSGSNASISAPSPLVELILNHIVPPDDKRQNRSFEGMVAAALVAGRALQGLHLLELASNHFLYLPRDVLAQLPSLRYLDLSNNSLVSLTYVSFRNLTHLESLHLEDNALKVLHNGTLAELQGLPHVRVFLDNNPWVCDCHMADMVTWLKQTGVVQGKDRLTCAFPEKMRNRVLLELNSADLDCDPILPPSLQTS

B1: 286B4 chimeric antibody (antibody, V domains shown)
VH: DVQLHESGPGLVKPSQSLSLTCSVTGYSITNNYYWNWIRQFPGNNLEWMGYITYDGSNNYNPSLKNRISVTRDTSKNQFFLKLSSVTTEDTATYYCTRGGGQLRFDYWGQGTTLTVSS
VL: SIVMTQTPKFLIVSAGDRVTITCKASQSVSNEVTWYQQKPGQSPKMLIYYASNRYTGVPDRFTGSGYGTDFTFTINTVQAEDLAIYFCQQDYSSPWTFGGGTKLEIK
notes: chimeric mAb; also called 284B4-C
B2: 119G5 chimeric antibody (antibody, V domains shown)
VH: QVQLQQSGPEVVKPGASVKISCKASGYTFTDYYMNWVKQSRGKSLEWIGDINPNNGGTNYNQKFKGKATLTVDKSSSTAYMELRSLTSEDSAVYYCAKEGPPGAMDYWGQGTSVTVSS
VL: NIVMTQTPKFLLVSAGDRVTITCKASQSVSNHVAWYQQKPGQSPKLLIYYVSNRSIGVPDRFTGSGYGTDFTFTISTVQAEDLAVYFCQQVYSSPFTFGGGTRLEMK
notes: chimeric mAb
B3: 85B10 chimeric antibody (antibody, V domains shown)
VH: B2 VH with V11L, D31A, M34V, R41H, K74M
VL: B2 VL with N1S, M4L, T20P, H32N, V51A, R54P, S55Y, I56T, S76T, R103K
notes: chimeric mAb
B4: 95F10 chimeric antibody (antibody, V domains shown)
VH: B2 VH with K13N, G66D, S77N, D90N
VL: B2 VL with S55Y
notes: chimeric mAb
B5: 493E10 chimeric antibody (antibody, V domains shown)
VH: DVQLVESGGGLVQPGGSRKLSCAASGFTFSSFGMHWVRQAPEKGLEWVAYISSGSSTIYYADTVKGRFTISRDNPKNTLFLQMTSLRSEDTAMYYCARNRAYHREAMDYWGQGTSVTVSS
VL: DIVLTQSPASLTVSLGQRATISCRASQSVSSSSYNYMHWYQQKPGQPPKLLIKSASNLESGVPARFSGSGSGTDFTLNIHPVEEEDTATYYCQHSWEIPYTFGGGTKLEIK
notes: chimeric mAb
B6: 425G1 chimeric antibody (antibody, V domains shown)
VH: EVQLQQSGAELVKPGASVKLSCTASGFNIKDTYMHWVKQRPEQGLEWIGRIDPANGHTIFASKFQGKATITADTSSNTAYMQLSSLTSGDTAVYYCGLFTMVVVPWYFDVWGTGTTVTVSS
VL: DIVMTQSHKFMSTSVGDRVSITCKASQDVSTAVAWYQQKPGQSPKLLIYWASTRHTGVPDRFTGSGSGTDYTLTISSVQAEDLALYYCQQHYSSPLTFGAGTKLELK
notes: chimeric mAb
B7: 449H9 chimeric antibody (antibody, V domains shown)
VH: QVQLQQSGAELVRPGSSVRISCKASGYAFSNYWMNWVKQRPGQGLEWIGQIYPGDGDTNYNGKFKNKATLTTDKSSSTAYMQLSSLTSEDSAVYFCARHYDYPYYYAMDYWGQGTSVTVSS
VL: DIQMTQSPSSLSASLGERVSLTCRASQDIGIALTWLQQEPDGTIKRLIYATSSLDSGVPKRFSGSRSGSDYTLTISSLESEDFVDYYCLQYIISPYTFGGGTKLEIK
notes: chimeric mAb
B8: 49C5 chimeric antibody (antibody, V domains shown)
VH: EVQLQQSGPELVKPGASVKISCKASGYTFTDYYMNWVKQSHGKSLEWIGDINPYSGGATNNQKFKGKATLTVDKSSSTAYIELRSLTSEDSAVYFCARGSIYYDSTANYFDYWGQGTTLTVSS
VL: DIQMTQSPASLSASVGETVTITCRASENIYSYLAWYQQKQGKSPQLLVYNAKSLTEGVPSRFSGSRSGTQFSLKINSLQPEDFGSYYCQHHYVTPWTFGGGTKLEIK
notes: chimeric mAb
B9: 109H7 chimeric antibody (antibody, V domains shown)
VH: QVQLQQSGAELMKPGASVKLSCKATGYTFTGYWIEWVKQRPGQGLEWIGETLPGRGSTNYNEKFKGKATFTADTSSNIVYMQLSSLTIEDSAIYYCARGRRDFDYWGQGTTLTVSS
VL: DIQMTQTTSSLSASLGDEVTISCSASQGINNYLNWYQQKPDGTVKLLIYYTSSLHSGVPSRFSGSGSGTDYSLTIINLEPEDIATYYCQQFSKLPFTFGSGTKLEIR
notes: chimeric mAb
B10: 367B8 chimeric antibody (antibody, V domains shown)
VH: QVQLQQPGTELVKPGASVKLSCKASGYTFTSYWMHWVKQRPEQGLEWIGNINPSNGNTNYNENFKSQATLTVDKSSSTAYMQLSSLTSEDSAVYYCARGGWDFDYWGQGTTLTVSS
VL: QVVLTQSPAIMSASPGEKVTMTCSASSSVRYIHWYQQRSGTSPKRWIYDTSKLTSGVPVRFSGSGSGTSYSLTISSMEAEDAATYYCQQWTSKPPWTFGGGTKLEIR
notes: chimeric mAb
B11: 353H11 chimeric antibody (antibody, V domains shown)
VH: B10 VH with G26D, N63K, S66N, Q67K, S88F
VL: B10 VL with I32M, V59A, Q89L
notes: chimeric mAb
B12: 389G2 chimeric antibody (antibody, V domains shown)
VH: B10 VH with N63R, Q67K, A92T
VL: B10 VL with Y70F, R107K
notes: chimeric mAb

Where a chain is given by its changes, count along the chain named.

The first assay addresses T1, human 5T4-His protein. Put plainly: SPR Biacore, Protein A capture. The procedure: The binding of the 286B4 humanized antibodies to recombinant 5T4 protein (human 5T4-his tag) was tested with Biacore using a capture method. The mAbs were captured using Protein A chip. A serial dilution of human 5T4-his tag protein was injected over captured antibody for 3 mins at a flow rate of 30 μl/min. The antigen was allowed to dissociate for 280-800 s. All the experiments were carried out on a Biacore T200. Data analysis was carried out using the Biacore T200 evaluation software.
Take B1: binding was put at a Kd of 1.25 nM, the koff stood at 0.000113 s⁻¹ and the kon was found to be 90900 M⁻¹ s⁻¹.

For the next assay, the target named is T1, human 5T4-His protein. Put plainly: ELISA, coated 5T4-His. In outline: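 Plates coated overnight at 4° C with 1 μg/ml 5T4-His, blocked with 1% BSA. Antibodies in 4-fold dilutions from 20 nM, 1 h at 37° C; bound antibody detected with anti-human IgG-HRP (30 min, 37° C), TMB development, OD 450 nm.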
Background: ELISA stands for enzyme-linked immunosorbent assay.
The molecule B1 showed an EC50 of 0.32 nM. This lies in the sub-nanomolar range.

Another assay addresses T1, human 5T4-His protein. Put plainly: SPR Biacore, Protein A capture. This is another data set of the same source. The procedure:
The binding of the chimeric mAbs from these clones against recombinant 5T4 protein (human 5T4-his tag) was tested with Biacore using a capture method. The mAbs were captured using Protein A chip. A serial dilution of human 5T4-his tag protein was injected over captured antibody for 2-3 mins at a flow rate of 30 μl/min. The antigen was allowed to dissociate for 360-1000 s. All the experiments were carried out on a Biacore T200. Data analysis was carried out using Biacore T200 evaluation software.
B2 came in with a Kd of 1.22 nM, a koff of 0.000159 s⁻¹ and a kon of 130000 M⁻¹ s⁻¹.
In the same order, the values of B3 are 0.792 nM, 0.000125 s⁻¹ and 158000 M⁻¹ s⁻¹.
In the same order, the values of B4 are 0.337 nM, 0.00012 s⁻¹ and 355000 M⁻¹ s⁻¹.
The molecule B5 showed a Kd of 0.626 nM, a dissociation rate constant (koff) of 0.000402 s⁻¹ and an on-rate (kon) of 642000 M⁻¹ s⁻¹.
In the same order, the values of B1 are 0.96 nM, 6.99e-05 s⁻¹ and 72800 M⁻¹ s⁻¹.
In the same order, the values of B6 are 1.64 nM, 0.000215 s⁻¹ and 131000 M⁻¹ s⁻¹.
In the same order, the values of B7 are 0.381 nM, 0.000115 s⁻¹ and 301000 M⁻¹ s⁻¹.
On to B8, for which binding was characterised by a dissociation constant (Kd) of 0.62 nM, the koff came to 0.000337 s⁻¹ and the kon is 544000 M⁻¹ s⁻¹.
In the same order, the values of B9 are 0.606 nM, 0.000391 s⁻¹ and 645000 M⁻¹ s⁻¹.
In the same order, the values of B10 are 0.285 nM, 0.000167 s⁻¹ and 588000 M⁻¹ s⁻¹.
In the same order, the values of B11 are 0.24 nM, 9.63e-05 s⁻¹ and 401000 M⁻¹ s⁻¹.
In turn, B12 had a Kd of 0.49 nM, a koff of 0.000138 s⁻¹ and a kon of 282000 M⁻¹ s⁻¹.

The target of a further assay is T1, human 5T4-His protein. The experiment in a line: ELISA, coated antigen. The procedure:
(§1) ELISA testing was carried out to evaluate the binding of chimeric antibodies to human and cynomolgus, respectively. The antibody portion of naptumomab (NeoTX) that targets 5T4 (abbreviated as naptumomab in the present disclosure), was generated and used as a benchmark.
(§2) Briefly, microtiter plates were coated with human and cynomolgus 5T4 proteins at […] in PBS, 100 μl/well at 4° C. overnight, then blocked with 150 μl/well of 1% BSA. Serial dilutions of chimeric antibodies were added to each well and incubated for 1 hour at RT. The plates were washed with PBS/Tween and then incubate with mouse-anti-human IgG Fc antibody conjugated with Horse Radish Peroxidase (HRP) for 30 mins at RT. After washing, the plates were developed with TMB substrate and analyzed by spectrophotometer at OD 450 nm. All the 5T4 chimeric mAbs bound to human and cynomolgus 5T4 (FIG. 1-2 and Table 3).
For the molecule B2, the EC50 was found to be 0.32 nM.
The same measure, in the same setting: then B3, with 0.34 nM.
Still for that read-out and setting: then B4, with 0.24 nM; and B5, with 0.28 nM.
Still for that read-out and setting: as for B1, the figure is 0.35 nM; as for B6, 0.29 nM; as for B7, 0.37 nM.
The molecule B8 returned an EC50 of 0.6 nM. Compared with the last molecule, the EC50 is about 1.6-fold higher.
As for B9, the EC50 stood at 0.31 nM.
Same read-out and setting: as for B10, the figure is 0.86 nM; as for B11, 0.73 nM; as for B12, 0.23 nM.

Another assay addresses T2, cynomolgus 5T4 protein. Put plainly: ELISA, coated antigen. The procedure: as §1, §2
For B2, the EC50 is 0.2 nM.
In turn, B3 yielded an EC50 of 0.17 nM. The EC50 values of the last two molecules are within 1.5-fold of each other.
On the same count and under the same terms, then B4, with 0.17 nM; and B5, with 0.25 nM; and B1, with 0.22 nM.
Same read-out and setting: as for B6, the figure is 0.23 nM; as for B7, 0.1 nM.
On the same count and under the same terms, then B8, with 0.18 nM.
For B9, the EC50 is 0.19 nM.
B10: the EC50 was found to be 0.13 nM.
With B11, the EC50 stood at 0.13 nM.
The same measure, in the same setting: as for B12, the figure is 0.19 nM.
